Experiments:
PKA-C-eGFP [1] = biological target: PKA-C-eGFP (UniProt P17612); experiment: co-IP; nanobead-based sc-SiMPull: single HEK293T cells coexpressing PKA-C-eGFP and PKA-R-HA lysed in situ in microwells, anti-GFP-coated nanobeads, PKA-R-HA visualised by immunostaining with anti-HA and fluorophore-conjugated 2nd antibody
PKA-C-eGFP [2] = biological target: PKA-C-eGFP (UniProt P17612); experiment: co-IP; nanobead-based sc-SiMPull: single HEK293T cells trapped in microwells and lysed in situ, anti-GFP-coated magnetic nanobeads capture PKA-C-eGFP, mCherry seen directly by confocal microscopy; control conditions (no cAMP); room temperature

percent of GFP spots colocalized with the anti-HA (Alexa 561) spots (PKA-C-eGFP [1]) | percent of GFP and mCherry signals colocalized (PKA-C-eGFP [2]) | Substance
60% |  | PKA-R-HA (from UniProt P10644 1-381) (natural protein)
 | 70% | PKA-R-mCherry (from UniProt P10644 1-381) (natural protein)
